Measurements as given in US20020002269A1, “ARTEMIN, A NEUROTROPHIC FACTOR” (priority 1998, published 2002).

B1: GDNF: recombinant human mature GDNF obtained from Genentech (protein, UniProt P39905 78-211, looked up)
Glial cell line-derived …: SPDKQMAVLPRRERNRQAAAANPENSRGKGRRGQRGKNRGCVLTAIHLNVTDLGLGYETKEELIFRYCSGSCDAAETTYDKILKNLSRNRRLVSDKVGQACCRPIAFDDDLSFLDDNLVYHILRKHSAKRCGCI

Legend:
[1] = tested on: NBL-S neuroblastoma cell line; assay: BrdU cell proliferation assay in NBL-S neuroblastoma cells; assay type: cell-based; details: 50 ng/mL, 30 hrs after factor addition, FIG. 8D
Procedure: In another experiment, the ability of artemin to induce proliferation of the NBL-S neuroblastoma cell line was examined. NBL-S cells were plated at 5×10^4 cells/well on 48-well plates in standard medium, either without treatment or in the presence of 50 ng/mL of GDNF, artemin, or persephin. Actively dividing cells undergoing DNA synthesis 30 hrs after factor addition were detected using the BrdU (colorimetric) cell proliferation assay kit according to the manufacturer's instructions (Boehringer-Mannheim) and the data are shown in FIG. 8D.

GFRα2/RET = biological target: T1, GFRα2/RET (Homo sapiens, UniProt O00451+P07949); assay: Ga14-Elk/Ga14-Luc reporter in RET-3T3 fibroblasts transfected with GFRα2; assay type: cell-based; details: RET-3T3, 50 ng/ml for 6-8 hours, FIG. 10A
T1 construct: expressed in transfected cells; host or cells: MG87 fibroblasts stably expressing human RET (RET-3T3), transiently transfected with the CMV-GFRα2 plasmid
Procedure: (§1) Thus, to directly test which receptor combinations can form functional receptors for artemin, expression plasmids for the individual GFRA coreceptors together with the Ga14-Elk/Ga14-Luc reporter system were transiently transformed into fibroblasts that stably express RET. […]
(§2) NLF neuroblastoma cells, which naturally express GFRα2/RET (Tansey et al., submitted), or the RET-3T3 cells were plated at 85,000 cells/well in 12-well plates, and cotransfected with the reporter plasmids Ga14-Luc and CMV-Ga14-Elk (250 ng/well and 50 ng/well, respectively), CMV-lacZ (50 ng/well) for transfection normalization, one of the CMV-GFRA expression plasmids (500 ng/well), and pBluescript (650 ng/well) as carrier for a total of 1.5 μg DNA/well using the Superfect reagent (Qiagen) according to the manufacturer's instructions. […] Measurement of luciferase and β-galactosidase activity was measured using a luminometer and performed as described (Svaren et al., EMBO J 17:6010-6019, 1998). The average luciferase activity of duplicate samples was normalized to β-galactosidase activity of the cotransformed lacZ reporter, and fold activation was calculated by dividing the normalized activity in factor-treated cells by that in the no treatment control.

GFRα1/RET = biological target: T2, GFRα1/RET (UniProt P07949+Q62997); assay: Ga14-Elk/Ga14-Luc reporter in RET-3T3 fibroblasts transfected with GFRα1; assay type: cell-based, rat GFRα1, human RET; details: FIG. 10A; for activation of RET signaling in cells expressing GFRα1/RET (luciferase reporter): RET-3T3, 50 ng/ml for 6-8 hours
T2 construct: expressed in transfected cells; host or cells: MG87 fibroblasts stably expressing human RET (RET-3T3), transiently transfected with the CMV-GFRα1 plasmid
Source text: Thus, to directly test which receptor combinations can form functional receptors for artemin, expression plasmids for the individual GFRA coreceptors together with the Ga14-Elk/Ga14-Luc reporter system were transiently transformed into fibroblasts that stably express RET. This system, which utilizes the ability of the Ga14-Elk fusion protein to respond to MAP kinase activity and activate transcription of the Ga14-luciferase reporter, has been used previously to monitor NGF/TrkA activation of the MAP kinase pathway in PC12 cells (Vossler et al., Cell 89:73-82, 1997; York et al., Nature 392:622-626, 1998), and GDNF/RET activation of MAP kinase in neuroblastoma cell lines (Worby et al., 1998, supra; Worby et al., J. Biol. Chem. 271:23619-23622, 1996).
Generation of the expression plasmids for rat GFRα1 and human GFRα2, as well as MG87 fibroblasts stably expressing human RET (RET-3T3), were described in detail previously (Baloh et al., 1997, supra; Creedon et al., 1997, supra). […]
as §2

[2] = tested on: CHP134 neuroblastoma cell line; assay: Responsiveness of a neuroblastoma cell line that does not express RET (CHP134); assay type: cell-based; details: data not shown
[3] = tested on: NLF cells transformed with GFRα1; assay: Ga14-Elk/Ga14-Luc reporter in NLF neuroblastoma cells transformed with GFRα1; assay type: cell-based; details: factor for 24 hours, low-serum medium, FIG. 10B
Procedure: as §1, §2

GFRα3/RET = biological target: T3, GFRα3/RET (Homo sapiens, UniProt O60609+P07949); assay: Ga14-Elk/Ga14-Luc reporter in RET-3T3 fibroblasts transfected with GFRα3; assay type: cell-based; details: RET-3T3, 50 ng/ml for 6-8 hours, FIG. 10A
T3 construct: a fragment containing the complete coding region of human GFRα3 was PCR-amplified from a human pituitary cDNA library; expressed in transfected cells; host or cells: MG87 fibroblasts stably expressing human RET (RET-3T3), transiently transfected with pCB6-GFRα3
Procedure: as §1, §2

[4] = tested on: CHP126 neuroblastoma cell line; assay: Responsiveness of a neuroblastoma cell line that does not express RET (CHP126); assay type: cell-based; details: data not shown
[5] = tested on: dorsal root ganglion (DRG) neurons; assay: Survival of cultured dorsal root ganglion neurons; assay type: cell-based, rat
Procedure: (§3) Each GDNF ligand family member consisted of the human mature amino acid sequence and was produced by standard recombinant DNA methods. Recombinant GDNF, neurturin and persephin were obtained from Genentech while recombinant artemin was produced as described in Example 3.
(§4) The cultures were performed using standard methods described elsewhere (Kotzbauer et al., Neuron 12:763-773, 1994; Kotzbauer et al., Nature 384:467-470, 1996; Milbrandt et al., Neuron 20:245-253, 1998). In brief, for SCG neurons, after dissection and dissociation, neurons were plated on collagen-coated 24-well tissue culture plates and maintained in NGF-containing medium (AM50) for 5 days, after which they were either kept in AM50 or switched to medium containing neutralizing anti-NGF antibodies plus GDNF, neurturin, persephin, artemin, (50 ng/ml where not noted otherwise), or no growth factors. Cultures were maintained for 3 days, after which they were fixed in 4% paraformaldehyde and stained with toluidine blue, and surviving neurons were counted. For nodose ganglion and dorsal root ganglion neuron cultures, dissociated neurons were plated directly into NGF (for dorsal root ganglia), or BDNF (for nodose ganglia, 100 ng/ml) or one of the GDNF ligands in serum-containing medium (AM50 with anti-NGF antibodies), and cells surviving after 3 days in culture were counted as above. Trigeminal ganglia were dissected, dissociated, and plated directly into medium containing NGF or the indicated GDNF ligands, and the number of surviving cells was assessed after 3 days in vitro. For all culture systems, 2-3 independent experiments were performed.

[6] = tested on: nodose ganglion (NG) neurons; assay: Survival of cultured nodose ganglion neurons; assay type: cell-based, rat; details: FIG. 7D; for survival of NG neurons: 50 ng/ml, 3 days in culture; for survival promotion of NG neurons compared with BDNF: GDNF family ligands 50 ng/ml, BDNF 100 ng/ml
Procedure: as §3, §4

[7] = 50 ng/ml, 3 days in culture, FIG. 7A

T2 sequence (Q62997 25-430 limits assumed): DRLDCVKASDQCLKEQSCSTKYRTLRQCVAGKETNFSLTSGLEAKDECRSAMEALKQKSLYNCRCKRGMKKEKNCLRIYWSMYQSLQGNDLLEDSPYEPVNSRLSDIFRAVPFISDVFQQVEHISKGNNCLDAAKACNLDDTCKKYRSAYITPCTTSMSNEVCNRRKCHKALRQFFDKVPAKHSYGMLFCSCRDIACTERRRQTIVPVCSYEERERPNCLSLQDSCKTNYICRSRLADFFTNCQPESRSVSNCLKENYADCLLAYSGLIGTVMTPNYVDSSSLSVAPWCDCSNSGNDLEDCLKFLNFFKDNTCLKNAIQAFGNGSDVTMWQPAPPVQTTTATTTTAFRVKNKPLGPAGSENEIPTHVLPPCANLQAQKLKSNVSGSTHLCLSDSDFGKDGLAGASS
T2 sequence (P07949 29-1114): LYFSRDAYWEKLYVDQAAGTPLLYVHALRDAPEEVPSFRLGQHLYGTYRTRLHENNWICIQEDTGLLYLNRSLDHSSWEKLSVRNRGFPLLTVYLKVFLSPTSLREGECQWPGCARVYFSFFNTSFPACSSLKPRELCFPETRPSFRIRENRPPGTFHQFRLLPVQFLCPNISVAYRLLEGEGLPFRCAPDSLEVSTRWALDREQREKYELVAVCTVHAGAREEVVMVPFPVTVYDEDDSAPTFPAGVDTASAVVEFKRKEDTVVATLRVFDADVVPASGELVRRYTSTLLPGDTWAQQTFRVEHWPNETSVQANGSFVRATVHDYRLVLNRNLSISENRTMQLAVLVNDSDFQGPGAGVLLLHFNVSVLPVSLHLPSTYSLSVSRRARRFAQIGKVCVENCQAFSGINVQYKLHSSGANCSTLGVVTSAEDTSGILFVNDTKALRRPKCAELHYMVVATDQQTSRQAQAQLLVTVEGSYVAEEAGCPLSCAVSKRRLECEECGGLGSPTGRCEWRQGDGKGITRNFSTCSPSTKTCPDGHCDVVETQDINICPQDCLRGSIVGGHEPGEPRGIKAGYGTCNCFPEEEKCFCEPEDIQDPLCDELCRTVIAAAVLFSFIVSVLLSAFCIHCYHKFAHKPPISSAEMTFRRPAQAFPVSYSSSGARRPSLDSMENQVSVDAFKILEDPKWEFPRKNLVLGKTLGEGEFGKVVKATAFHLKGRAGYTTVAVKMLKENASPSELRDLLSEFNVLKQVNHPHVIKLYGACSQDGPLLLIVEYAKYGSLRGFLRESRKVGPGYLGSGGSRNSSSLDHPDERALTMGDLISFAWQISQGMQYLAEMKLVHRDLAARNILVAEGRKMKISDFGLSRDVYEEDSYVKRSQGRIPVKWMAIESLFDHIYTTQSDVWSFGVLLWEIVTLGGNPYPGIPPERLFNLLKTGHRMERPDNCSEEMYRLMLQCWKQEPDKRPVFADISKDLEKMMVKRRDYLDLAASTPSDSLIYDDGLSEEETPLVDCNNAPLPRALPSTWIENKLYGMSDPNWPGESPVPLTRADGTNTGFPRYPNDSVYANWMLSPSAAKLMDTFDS
T1 sequence (O00451 22-444 limits assumed): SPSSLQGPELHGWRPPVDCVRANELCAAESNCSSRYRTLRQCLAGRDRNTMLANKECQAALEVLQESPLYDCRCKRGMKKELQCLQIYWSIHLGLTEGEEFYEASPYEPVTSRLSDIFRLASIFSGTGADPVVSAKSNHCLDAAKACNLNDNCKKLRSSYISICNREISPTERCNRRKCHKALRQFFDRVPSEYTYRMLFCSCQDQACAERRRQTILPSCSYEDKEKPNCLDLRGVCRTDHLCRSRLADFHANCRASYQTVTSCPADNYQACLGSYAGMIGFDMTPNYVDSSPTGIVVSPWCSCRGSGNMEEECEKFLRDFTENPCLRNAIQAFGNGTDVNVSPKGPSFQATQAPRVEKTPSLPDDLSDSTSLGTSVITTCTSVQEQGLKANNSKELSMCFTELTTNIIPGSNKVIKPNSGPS
T1 sequence (P07949 29-1114): as the sequence (P07949 29-1114) above
T3 sequence (O60609 32-374 limits assumed): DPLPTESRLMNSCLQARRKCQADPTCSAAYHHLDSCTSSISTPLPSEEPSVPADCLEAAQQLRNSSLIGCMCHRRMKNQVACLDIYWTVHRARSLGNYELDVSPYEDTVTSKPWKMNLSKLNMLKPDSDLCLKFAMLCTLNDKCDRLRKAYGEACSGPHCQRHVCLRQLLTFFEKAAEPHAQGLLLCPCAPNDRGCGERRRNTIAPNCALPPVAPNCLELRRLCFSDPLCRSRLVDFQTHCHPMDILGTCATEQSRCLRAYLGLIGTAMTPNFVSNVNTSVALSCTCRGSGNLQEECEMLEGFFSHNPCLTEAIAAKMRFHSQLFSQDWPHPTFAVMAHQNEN
T3 sequence (P07949 29-1114): as the sequence (P07949 29-1114) above

Molecule	proliferation of NBL-S cells (BrdU incorporation) [1]	activation of RET signaling in cells expressing GFRα2/RET (luciferase reporter) (GFRα2/RET)	activation of RET signaling in cells expressing GFRα1/RET (luciferase reporter) (GFRα1/RET)	degree of RET activation in cells expressing GFRα1/RET compared with GDNF (GFRα1/RET; RET-3T3, 50 ng/ml)	response of CHP134 cells [2]	response of NLF cells transformed with GFRα1 (luciferase reporter) [3]	activation of RET signaling in cells expressing GFRα3/RET (luciferase reporter) (GFRα3/RET)	response of CHP126 cells [4]	survival of DRG sensory neurons [5, 7]	number of DRG neurons supported compared with GDNF or neurturin ([5]; 50 ng/ml, FIG. 7A)	EC50 of survival promoting effect on DRG neurons ([5]; dose response, P1 rat DRG neurons, 3 days in culture, FIG. 7B) [ng/mL]	EC50 ([5]; dose response, P1 rat DRG neurons, molar figure, FIG. 7B, read-out: EC50 of survival promoting effect on DRG neurons) [nM]	survival of NG neurons [6]	survival promotion of NG neurons compared with BDNF [6]
artemin: recombinant mature human artemin (FIG. 3A, SEQ ID NO:3) with 8-histidine tag, produced in E. coli; GDNF family neurotrophic factor	stimulated proliferation of NBL-S cells	not GFRα2/RET	able to activate RET in cells expressing GFRα1/RET	to a lesser degree than GDNF	did not respond	became responsive to artemin	able to activate GFRα3/RET	did not respond	supported the survival of a subset of sensory neurons	supported a larger number of neurons than GDNF or neurturin	1 to 3	~0.1	supported similar numbers of NG neurons	equal or greater survival promotion than BDNF
B1	stimulated proliferation of NBL-S cells	activated RET signaling	activated RET signaling		did not respond	responded more intensely to GDNF	not GFRα3/RET	did not respond	supported the survival of a subset of sensory neurons				supported similar numbers of NG neurons	equal or greater survival promotion than BDNF
